Several values for one entry are separate records, joined by “and”; a condition that tells them apart may be missing. Equal values may be shown once.
Legend:
[1] = molecular target: Bio-Peptide-2 (human cytomegalovirus (4D variant)); experiment: ELISA, Bio-Peptide-2 coated
[2] = molecular target: Bio-Peptide-2 (human cytomegalovirus (4D variant)); experiment: ELISA (FIG. 5)
[3] = molecular target: Peptide-N-BSA (human cytomegalovirus); experiment: ELISA, Peptide-N-BSA coated
[4] = molecular target: Peptide 3 (human cytomegalovirus); experiment: HuProt array, 0.1 µg/ml

B1: US28-14-4E4-1E8 (antibody, mouse IgG1, kappa)
heavy: not shown
light: QIVLSQSPTIMSASPGEKVTMTCSASSSVSYMHWYQQKSGTSPKRWIYDSSKLASGVPARFSGSGSGTSYSLTISSMEAEDAATYYCQQWTSNPPITFGAGTKLELKRADAAPTVSIFPPSSEQLTSGGASVVCFLNNFYPKDINVKWKIDGSERQNGVLNSWTDQDSKDSTYSMSSTLTLTKDEYERHNSYTCEATHKTSTSPIVKSFNRNEC
Work on B1 yielded an absorbance [1] of 2.87.

B2: US28-13-1C10-1C10 (antibody, mouse IgG1, kappa)
heavy: EVKLVESGGVLVKPGGSLKFSCAASGFTFSSHALSWVRQTPEKRLEWVASISSRGRTYYPDSVKGRFTVSRDNARNILYLQVSSLRSEDTAMYYCTRGGTHYSYGNGFDFWGQGTTLTVSSAKTTPPSVYPLAPGSAAQTNSMVTLGCLVKGYFPEPVTVTWNSGSLSSGVHTFPAVLQSDLYTLSSSVTVPSSTWPSETVTCNVAHPASSTKVDKKIVPRDCGCKPCICTVPEVSSVFIFPPKPKDVLTITLTPKVTCVVVDISKDDPEVQFSWFVDDVEVHTAQTQPREEQFNSTFRSVSELPIMHQDWLNGKEFKCRVNSAAFPAPIEKTISKTKGRPKAPQVYTIPPPKEQMAKDKVSLTCMITDFFPEDITVEWQWNGQPAENYKNTQPIMDTDGSYFIYSKLNVQKSNWEAGNTFTCSVLHEGLHNHHTEKSLSHSPGK
light: QIVLTQSPAIMSASPGEKVTMTCSVSSSVSYMHWYQQKSGTSPKRWIYDTSKLASGVPARFSGSGSGTSYSLTISTMEAEDAATYYCQQWSNNPPITFGAGTKLELKRADAAPTVSIFPPSSEQLTSGGASVVCFLNNFYPKDINVKWKIDGSERQNGVLNSWTDQDSKDSTYSMSSTLTLTKDEYERHNSYTCEATHKTSTSPIVKSFNRNEC
Work on B2 yielded an absorbance [1] of 3.03.

B3: US28-13-1H3-1A10 (antibody, mouse IgG1, kappa)
heavy: EVKLVESGGVLVKPGGSLKFSCAASGFTLSSHALSWVRQTPEKRLEWVASISSRGRTYYPDSVKGRFTVSRDNARNILYLQVSSLRSEDTAMYYCTRGGTHYSYGNGFDFWGQGTTLTVSSAKTTPPSVYPLAPGSAAQTNSMVTLGCLVKGYFPEPVTVTWNSGSLSSGVHTFPAVLQSDLYTLSSSVTVPSSTWPSETVTCNVAHPASSTKVDKKIVPRDCGCKPCICTVPEVSSVFIFPPKPKDVLTITLTPKVTCVVVDISKDDPEVQFSWFVDDVEVHTAQTQPREEQFNSTFRSVSELPIMHQDWLNGKEFKCRVNSAAFPAPIEKTISKTKGRPKAPQVYTIPPPKEQMAKDKVSLTCMITDFFPEDITVEWQWNGQPAENYKNTQPIMDTDGSYFIYSKLNVQKSNWEAGNTFTCSVLHEGLHNHHTEKSLSHSPGK
light: QIVLTQSPAIMSASPGEKVTMTCSVSSSVSYMHWYQQKSGTSPKRWIYDTSKLASGVPARFSGSGSGTSYSLTISTMEAEDAATYYCQQWSNNPPITFGAGTKLELKRADAAPTVSIFPPSSEQLTSGGASVVCFLNNFYPKDINVKWKIDGSERQNGVLNSWTDQDSKDSTYSMSSTLTLTKDEYERHNSYTCEATHKTSTSPIVKSFNRNEC
B3 gave an absorbance [1] of 2.84.

B4: US28-13-1C10-1G9 (antibody, mouse IgG1, kappa)
heavy: not shown
light: QIVLTQSPAIMSASPGEKVTMTCSASSSVSYMHWYQQKSGTSPKRWIYDTSKLASGVPARFSGSGSGTSYSLTISSMEAEDAATYYCQQWSSNPPLTFGAGTKLELKRADAAPTVSIFPPSSEQLTSGGASVVCFLNNFYPKDINVKWKIDGSERQNGVLNSWTDQDSKDSTYSMSSTLTLTKDEYERHNSYTCEATHKTSTSPIVKSFNRNEC
In the case of B4, the absorbance [1] is reported as 3.06.

B5: US28-13-5G6-1D3 (antibody)
heavy: EVKLVESGGGLVQPGGSLRLACATSGFTFTDYYMSWVRQPPGKALEWLGFIRSKANGYTTEYSASVKGRFTISRDNSQSILYLQMNTLRSEDSATYYCARDERRTAWLAYWGQGTLVTVSAAKTTPPSVYPLAPGSAAQTNSMVTLGCLVKGYFPEPVTVTWNSGSLSSGVHTFPAVLQSDLYTLSSSVTVPSSTWPSETVTCNVAHPASSTKVDKKIVPRDCGCKPCICTVPEVSSVFIFPPKPKDVLTITLTPKVTCVVVDISKDDPEVQFSWFVDDVEVHTAQTQPREEQFNSTFRSVSELPIMHQDWLNGKEFKCRVNSAAFPAPIEKTISKTKGRPKAPQVYTIPPPKEQMAKDKVSLTCMITDFFPEDITVEWQWNGQPAENYKNTQPIMDTDGSYFIYSKLNVQKSNWEAGNTFTCSVLHEGLHNHHTEKSLSHSPGK
light: DVLMTQTPLSLPVSLGDQASISCRSSQSIVHSNGNTYLDWYLQKPGQSPKLLIYKVSNRFSGVPDRFSGSGSGTDFTLKISRVEAEDLGVYYCFQGSHVPTWTFGGGTKLEIKRADAAPTVSIFPPSSEQLTSGGASVVCFLNNFYPKDINVKWKIDGSERQNGVLNSWTDQDSKDSTYSMSSTLTLTKDEYERHNSYTCEATHKTSTSPIVKSFNRNEC
In the case of B5, the fold binding over BSA control [2] is reported as 27 fold and 28 fold.

B6: US28-4-7B1F3 (antibody, mouse IgG1, kappa)
heavy: EVQLQQSGAELAKPGASVKMSCKASGYTFTNYWMHWVKQRPGQGLEWIGYVNPRTGYTEYNQKFKDKATLTADKSSRTAYMQLSSLTSEDSAVYSCARILNGTGFAYWGQGTLVTVSAAKTTPPSVYPLAPGSAAQTNSMVTLGCLVKGYFPEPVTVTWNSGSLSSGVHTFPAVLQSDLYTLSSSVTVPSSTWPSETVTCNVAHPASSTKVDKKIVPRDCGCKPCICTVPEVSSVFIFPPKPKDVLTITLTPKVTCVVVDISKDDPEVQFSWFVDDVEVHTAQTQPREEQFNSTFRSVSELPIMHQDWLNGKEFKCRVNSAAFPAPIEKTISKTKGRPKAPQVYTIPPPKEQMAKDKVSLTCMITDFFPEDITVEWQWNGQPAENYKNTQPIMDTDGSYFIYSKLNVQKSNWEAGNTFTCSVLHEGLHNHHTEKSLSHSPGK
light: DIVLTQSPSSLTVSVGEKFTMSCKSSQSLLYSSNQKNYLAWYQQKPGQSPKLLIYWASTRESGVPDRFTGSGSGTDFTLAISSVKPEDLAIYYCQQYYSFPLTFGAGTKLEIKRADAAPTVSIFPPSSEQLTSGGASVVCFLNNFYPKDINVKWKIDGSERQNGVLNSWTDQDSKDSTYSMSSTLTLTKDEYERHNSYTCEATHKTSTSPIVKSFNRNEC
For B6, the absorbance [3] was 2.8, the F635 [4] was 50000 AU and the S Score [4] was 116. For the same binder, the Z Score [4] was 145.
